As a reminder, the Kd is a measure of binding affinity in units of concentration. Lower therefore signals a tighter complex.

For 3 sequences, Kd results are on record in article PMC11868117.

What all share (experiment): ELONA (direct, immobilized protein)
Data set [1] has as its target SARS-CoV-2 Alpha VOC spike (S) protein (SARS-CoV-2 (Alpha variant)) (UniProt P0DTC2).
Data set [2] deals with SARS-CoV-2 Delta VOC spike (S) protein (SARS-CoV-2 (Delta variant)) (UniProt P0DTC2).
Data set [3] concerns the target SARS-CoV-2 Omicron VOC spike (S) protein (SARS-CoV-2 (Omicron variant)) (UniProt P0DTC2).

The sequence “AGTTAGCCGTCATTCAGACGATTTGTCCGTGTTACGATTGGGGAACGTGGATGACATTCTGGACACTCGCCATGCTCGAT [Alpha Apt (Bio)]” displayed a Kd in data set [1] of 194 nM.
For “ATCGAGCATGGCGAGTGTCCTATCCCCCATCAACTCAACCCAACCAGTACGACTCCTCCTCGTCTGAATGACGGCTAACT [Delta Apt (Bio)]”, the Kd in data set [2] was found to be 112 nM.
Regarding “CTGGCCTCACTGGATACTCTAAGACTATTGGTCAAGTTTGCCTTGTCAAGGCTATTGGTCAAGGCAAGGCTGGCCAACCCATGGGTGGAGTTTAGCCAG [Omicron Apt (Bio)]”, the Kd in data set [3] came out at 32 nM.
